# Data as given in the supplement of paper PMC11865577.
# Tested on: TO-N3 (biotin conjugate)
# Experiment: pull-down binding Z-score (relative to library population); higher = stronger binding
# Conditions: RNA library: Library-2
# Summary of the method: (§1)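 The RNA library, end-labelled with Cy5 or Cy3, was heat-folded in phosphate/NaCl/KCl buffer, and 1 μg was incubated at 25 °C for 60 min with streptavidin beads carrying 100 pmol of biotin-conjugated small molecule. Hot SDS released the bound RNA, which was then hybridised to a DNA barcode microarray for 20 h at 55.5 °C. For scoring binding, signal from beads alone was subtracted, replicate barcoded probes were averaged after discarding the highest and lowest, and each value was turned into a Z-score from the library mean and standard deviation.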
row,Sequence,pull-down binding Z-score
1,GGCACCUACGAUACCCAGUGCC [hsa-mir-3116-2],-0.383
2,GGCACUGGGUAUCGUAGGUGCC [hsa-mir-3116-1],0.377
3,GGCAGAAAUGUC [hsa-mir-8053],-1.13
4,GGCAGGAGGCAGUGAAGUAACUUGC [hsa-mir-3934],1.43
5,GGCAGGGGGAGCUGCAGGGCUAUGGGAGGGGCCCCAGCGUCUGA [hsa-mir-1233-2_1233-1],3.66
6,GGCAGGGUCCUCCAGCUCAUUCCUCCUGCC [hsa-mir-6829],0.491
7,GGCAGGUGCCUCCGUGUUGCCGAACCCUCCU [hsa-mir-6761],0.998
8,GGCAGGUGUGGUUGGAGGAAGCAGCCUGAACCUGCC [hsa-mir-6778],0.227
9,GGCAGUGGUUCUAAAAGCUGUC [hsa-mir-3618],0.603
10,GGCAUCAGAGGACAGCCGCCUGGUGCC [hsa-mir-4641],0.327
11,GGCAUCCCCAUUGCU [hsa-mir-4304],0.343
12,GGCAUCUAGCACAGGCGGUAGAUGCU [hsa-mir-4486],-0.481
13,GGCAUCUAGGCUGUGCACAGUGACGCC [hsa-mir-4749],-0.376
14,GGCCACCCAGGGAGUAAGUAGCC [hsa-mir-4480],2.09
15,GGCCAUCUGCUAUUCGUCCACCAACCUGACUUGAUCC [hsa-mir-7111],0.256
16,GGCCAUCUGGCC [hsa-mir-4252],-0.667
17,GGCCCCAGGAAGAAGGGCCUGGUGGAGCC [hsa-mir-6743],0.577
18,GGCCGGUCAGGCA [hsa-mir-4689],0.576

# Tested on: TO-N3-2 (biotin conjugate)
# Experiment: as above
# Conditions: RNA library: Library-2
# Summary of the method: as §1
row,Sequence,pull-down binding Z-score
1,GCUUCUGCUGCAUGAUCUCCGAGUCCCUGGGGGUAGAGAUGAUGGGGCACUGGGAGGU [hsa-mir-1282],0.851
2,GCUUGCUGUACAUAACUCAAUAGCCGGAAGC [hsa-mir-129-2],0.327
3,GCUUGCUGUUCCUCUCAACAGUAGUCAGGAAGC [hsa-mir-129-1],-0.245
4,GCUUGGAGCCUUGGUAGGGAAGCAAGCUGAGGAGAUAGGA [hsa-mir-7154],1.92
5,GCUUUAUGUCCUGACCCAGCUAAAGC [hsa-mir-22],-0.0465
6,GCUUUCUGUGGUCAGAAAGAAAAGCAAGU [hsa-mir-520f],0.76
7,GCUUUUCACCUGUGAUCCCAGGAGAGGAAGC [hsa-mir-646],0.422
8,GGAAACUGAGACUUUGUAACUAUGUCUCAGUCUCA [hsa-mir-452],-0.427
9,GGAAAGGGGAUGCAGAGCCCUGCC [hsa-mir-4647],1.52
10,GGAACACUAUAUUAAUCAGGUUUCC [hsa-mir-6509],-0.706
11,GGAAGAAGGCUGAGGGAGAUGCCUUCUUCC [hsa-mir-6512],1.02
12,GGAAGACACAUGAGCAGUGCCUCCACUUCACGCCUCUCCC [hsa-mir-6780b],0.746
13,GGAAGGGAGCCCCAUUUACAGUGGUAACUUCCUUUCC [hsa-mir-5006],0.181
14,GGAAGGGCGCCUGUGCUUCGUCC [hsa-mir-572],0.767
15,GGAAUAGUGCUCCUGGUUGUUUC [hsa-mir-1180],0.243
16,GGAAUCCUACGUGAGGGACAAUCAUUCAGACCCACGUAGCAGUGUUCU [hsa-mir-1299],0.496
17,GGACAGGGAUUCUUUUCACUGUU [hsa-mir-599],0.0602
18,GGACAUCCUUCCAUAGUAAAUAAGCGGUGCC [hsa-mir-8064],0.218
19,GGACCCUCUCUCUACCUCU [hsa-mir-4315-1_4315-2],0.0855
20,GGACGUCACCACCAUGGCC [hsa-mir-650],0.358
21,GGACUCAGCCCUGUGCUGAGCCC [hsa-mir-5587],-0.961
22,GGACUUGCGGUUCA [hsa-mir-8057],0.109
23,GGAGAAGACUUUUCCUUUCCUCC [hsa-mir-4660],-0.545
24,GGAGACACUUUCACUAUAUAUAGUGGCUCC [hsa-mir-3156-2],-1.03

row,Sequence,pull-down binding Z-score
1,GGAGACACUUUUACUAUAUAUAGUGGCUCC [hsa-mir-3156-1],-1.51
2,GGAGACCCUAUACAUACCUGUUUCC [hsa-mir-5581],-0.354
3,GGAGACGGGUCUUUCUC [hsa-mir-1208],0.758
4,GGAGAGGAUCCACCUGUCCUGUCC [hsa-mir-6165],0.393
5,GGAGAGUAUGGUCACAGCAGCAUCCUCC [hsa-mir-6780a],0.36
6,GGAGAUCGUACC [hsa-mir-4430],-0.15
7,GGAGAUUGGAGUGGCCAGUGUUCCUAAACAAUUC [hsa-mir-4263],0.663
8,GGAGCAGACAGACCCAACCUCAUGCUCC [hsa-mir-6763],0.247
9,GGAGCCCGAGCAGCCGCGGUGAA [hsa-mir-7706],2.55
10,GGAGCCUUCCCCAGAGGAGUCAGGCC [hsa-mir-4312],1.41
11,GGAGCUCAGCACCUGCCUGCCACCCACGCAGACCAGCCCCUGCUCUGUUCCCACAG [hsa-mir-4648],1.9
12,GGAGCUCUGUCCUGUCUCACUCAUUGCUCC [hsa-mir-6749],0.177
13,GGAGCUCUGUGCCUUUGGGUCCUGGUGAGCUCU [hsa-mir-6070],0.681
14,GGAGCUGGCUGCUGGCCUCAGUUCU [hsa-mir-5001],1.05
15,GGAGGCACUGCCAGGGCUGCCCAC [hsa-mir-1202],2.09
16,GGAGGCAUGAAUGAGCCAUCUUUCCAAUGCCUUUC [hsa-mir-4743],0.952
17,GGAGGCCCCGCCCUGCUGCCGACCCUGUGGAGCGGAGGGUGAAGCCUCC [hsa-mir-3180-5],1.98
18,GGAGGCCCCGCUCUGCUGCCGACCCUGUGGAGCGGAGGGUGAAGCCUCC [hsa-mir-3180-4],1.24
19,GGAGGGUGAGCUUUCUGAAAACCCCUCC [hsa-mir-188],-0.0757
20,GGAGUCCUCUAGACACC [hsa-mir-6510],-0.175
21,GGAGUUGAUGCACAGUUAUCCAGCUCC [hsa-mir-337],-0.0382
22,GGAUAAGAAUCAGUCAC [hsa-mir-217],-0.147
23,GGAUAGAAACUAUUAUUCUAUUC [hsa-mir-664a],-1.38
24,GGAUCAUGUUUGCCCCCGUGGACAGCUCUCUGGUGUGCUCCUCCUGCCAUCCUGCCCACCCCUGCAUAAUGCUGCUUC [hsa-mir-6809],1.5

row,Sequence,pull-down binding Z-score
1,GGAUCCCAGAUCAAACCAGGCCC [hsa-mir-331],0.63
2,GGAUGAAAGUCAAAGAAUCC [hsa-mir-1262],0.0488
3,GGAUGGCCAGGGAAGUAUGCCGGGCCUUGGCAUUUC [hsa-mir-7159],1.9
4,GGAUGGGAGACCUGACCCAUCC [hsa-mir-5195],-0.332
5,GGAUGUGUUGACCCCUGAAGUGGUUCUGAUGACCUUUCC [hsa-mir-6883],0.938
6,GGAUUUGCUUCCUGUCACAAAUCA [hsa-mir-23a],-0.188
7,GGCACCUACGAUACCCAGUGCC [hsa-mir-3116-2],0.165
8,GGCACUGGGUAUCGUAGGUGCC [hsa-mir-3116-1],0.718
9,GGCAGAAAUGUC [hsa-mir-8053],-1.13
10,GGCAGGAGGCAGUGAAGUAACUUGC [hsa-mir-3934],1.2
11,GGCAGGGGGAGCUGCAGGGCUAUGGGAGGGGCCCCAGCGUCUGA [hsa-mir-1233-2_1233-1],3.08
12,GGCAGGGUCCUCCAGCUCAUUCCUCCUGCC [hsa-mir-6829],0.71
13,GGCAGGUGCCUCCGUGUUGCCGAACCCUCCU [hsa-mir-6761],1.74
14,GGCAGGUGUGGUUGGAGGAAGCAGCCUGAACCUGCC [hsa-mir-6778],0.361
15,GGCAGUGGUUCUAAAAGCUGUC [hsa-mir-3618],0.117
16,GGCAUCAGAGGACAGCCGCCUGGUGCC [hsa-mir-4641],0.46
17,GGCAUCCCCAUUGCU [hsa-mir-4304],0.191
18,GGCAUCUAGCACAGGCGGUAGAUGCU [hsa-mir-4486],-0.132
19,GGCAUCUAGGCUGUGCACAGUGACGCC [hsa-mir-4749],0.336
20,GGCCACCCAGGGAGUAAGUAGCC [hsa-mir-4480],1.42
21,GGCCAUCUGCUAUUCGUCCACCAACCUGACUUGAUCC [hsa-mir-7111],0.477
22,GGCCAUCUGGCC [hsa-mir-4252],-1.01
23,GGCCCCAGGAAGAAGGGCCUGGUGGAGCC [hsa-mir-6743],1.51
24,GGCCGGUCAGGCA [hsa-mir-4689],0.682
